The results in this text go back to patent US20250011380A1.

Holding throughout (experiment): cell-based or functional assay
Assay [1] addresses IL-2Rβ and common γ chain on 32Dβ cells.
The next assay concerns the target IL2Rαβγ on CTLL2 cells.
The target of the next assay is IL-21R on B9 cells.

Chain of IL2Rαβγ on CTLL2 cells (P01590 22-268, chain 1 of 3): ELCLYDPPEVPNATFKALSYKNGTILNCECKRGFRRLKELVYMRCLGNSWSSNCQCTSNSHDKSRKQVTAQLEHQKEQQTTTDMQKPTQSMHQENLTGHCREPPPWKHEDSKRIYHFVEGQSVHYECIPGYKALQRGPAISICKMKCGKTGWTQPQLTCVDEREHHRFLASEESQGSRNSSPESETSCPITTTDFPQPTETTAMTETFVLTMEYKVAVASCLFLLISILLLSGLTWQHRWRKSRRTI
Chain of IL2Rαβγ on CTLL2 cells (P16297 27-539, chain 2 of 3, further chain): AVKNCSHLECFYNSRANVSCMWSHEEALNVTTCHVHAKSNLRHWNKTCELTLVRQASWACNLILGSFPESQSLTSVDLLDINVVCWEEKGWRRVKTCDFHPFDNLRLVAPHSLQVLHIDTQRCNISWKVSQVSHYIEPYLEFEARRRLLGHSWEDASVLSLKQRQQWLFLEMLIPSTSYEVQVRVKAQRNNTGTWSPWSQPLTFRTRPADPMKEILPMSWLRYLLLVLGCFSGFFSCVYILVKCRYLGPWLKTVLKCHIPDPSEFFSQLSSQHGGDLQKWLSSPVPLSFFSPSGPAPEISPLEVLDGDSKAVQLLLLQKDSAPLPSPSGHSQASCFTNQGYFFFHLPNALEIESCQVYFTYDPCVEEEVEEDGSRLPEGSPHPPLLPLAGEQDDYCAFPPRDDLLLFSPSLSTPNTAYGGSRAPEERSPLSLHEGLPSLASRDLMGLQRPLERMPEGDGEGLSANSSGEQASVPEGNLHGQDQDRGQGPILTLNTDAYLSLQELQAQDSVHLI
Chain of IL2Rαβγ on CTLL2 cells (P34902 23-369, chain 3 of 3, further chain): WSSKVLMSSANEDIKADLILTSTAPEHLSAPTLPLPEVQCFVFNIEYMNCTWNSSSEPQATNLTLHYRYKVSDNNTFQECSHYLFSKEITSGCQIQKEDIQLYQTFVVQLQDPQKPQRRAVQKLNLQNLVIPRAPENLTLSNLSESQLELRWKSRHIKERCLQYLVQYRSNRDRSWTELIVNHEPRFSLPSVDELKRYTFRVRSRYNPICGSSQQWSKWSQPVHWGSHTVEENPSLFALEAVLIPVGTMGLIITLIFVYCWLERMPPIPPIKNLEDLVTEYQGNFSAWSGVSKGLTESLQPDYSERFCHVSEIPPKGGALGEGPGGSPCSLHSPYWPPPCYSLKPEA

With “recombinant IL-2 (from UniProt P60568 21-153) (ligand)”, the EC50, 32Dβ cell proliferation (WST1) in assay [1] is 0.14 nM. The substance further returned an EC50, CTLL-2 cell proliferation (WST1) in the assay with IL2Rαβγ on CTLL2 cells of 0.548 nM.
Turning to “recombinant IL-21 (from UniProt Q9HBE4 32-162) (ligand)”, in the assay with IL-21R on B9 cells, the EC50, B9 cell proliferation (WST1) was 72.5 nM.
